Entries after “also recorded” stand apart in the source; their conditions may differ. No end group written: not given here.

One series has as its target T1, HLA-A*0201 molecules (Homo sapiens, UniProt P04439, D140Y/D185E/D98H/E176V/E277Q/G131W/G231S/I119V/I121R/I166T/I218V/L300P/L318F/N151K/N90K/P208A/P217A/Q86G/Q94H/R138H/R169H/T345S).
T1 construct: T2 cell (which expressing HLA-A*0201)-stabilization assay; endogenous in cells; host or cells: T2 cells
Description: T2 cell-stabilization assay (T2-based HLA-A*0201 binding). Conditions: T2 cells, peptide 50 μg/mL; moderate binding affinity.
Consider “ALLSTNKAV (F193-201) [compound 8, 9-mer synthetic peptide from the F protein of RSV-B1 strain]”, for which the “binding affinity higher than the baseline” value is 10%.

On to “FLLGVGSAI (F163-171) [compound 6, 9-mer synthetic peptide from the F protein of RSV-B1 strain]”, for which the “binding affinity higher than the baseline” value worked out at 10%.

“SLIAVGLLL (F563-571) [compound 25, 9-mer synthetic peptide from the F protein of RSV-B1 strain]”: the “binding affinity higher than the baseline” value was determined as 10%.

As to “SVGNTLYYV (F474-482) [compound 18, 9-mer synthetic peptide from the F protein of RSV-B1 strain]”, the “binding affinity higher than the baseline” value is 10%.

In the case of “TLLLWVLLL (F5-13) [compound 1, 9-mer synthetic peptide from the F protein of RSV-B1 strain]”, the “binding affinity higher than the baseline” value was found to be 10%.

Staying with this series, now noted: T2 cells, peptide 50 μg/mL; ratio to negative control (MFI=1).
Take “KLMSNNVQI (F295-303) [compound 15, 9-mer synthetic peptide from the F protein of RSV-B1 strain]”: the “mean of fluorescence intensity (MFI) ratio, binding to HLA-A*0201” value (from here on “mean … (MFI) ratio, binding to HLA-A*0201”) is on record as “about 1.5”.

“LLSLIAVGL (F561-569) [compound 24, 9-mer synthetic peptide from the F protein of RSV-B1 strain]”: the “mean … (MFI) ratio, binding to HLA-A*0201” value is “about 1.5”.

In the case of “LLSTNKAVV (F194-202) [compound 9, 9-mer synthetic peptide from the F protein of RSV-B1 strain]”, the “mean … (MFI) ratio, binding to HLA-A*0201” value was “about 1.5”.

For the sequence “LMSNNVQIV (F296-304) [compound 16, 9-mer synthetic peptide from the F protein of RSV-B1 strain]”, the “mean … (MFI) ratio, binding to HLA-A*0201” value was “about 1.5”.

The test system of another series is lungs of peptide-immunized mice infected with RSV. Description: Pathological staining of CD4+ and CD8+ T cells in lungs of peptide-immunized, RSV-infected mice. Format: in vivo, mouse.
Details: not given
The source says:
A recent study has generally questioned the role of CTLs in the pathogenesis of human RSV infection. Very few CD8^+ T cells in the lung infiltrates were found in human infants infected with lethal RSV. Additionally, there was little evidence for T cell cytokines in nasal secretion and few CTL can be recovered by BAL from the infants with bronchiolitis.
For AITTILAAV [compound 3], the “infiltrated CD4+ and CD8+ T cells in the lungs” value was “few infiltrated CD4^+ and CD8^+ T cells”.

Consider KIMTSKTDV [compound 17], for which the “infiltrated CD4+ and CD8+ T cells in the lungs” value is “few infiltrated CD4^+ and CD8^+ T cells”.

In the case of VILLSLIAV [compound 23], the “infiltrated CD4+ and CD8+ T cells in the lungs” value was “more infiltrated CD4^+ and CD8^+ T cells; also recorded: severe CD8^+ lymphocytic inflammation”.

As for YMLTNSELL [compound 14], the “infiltrated CD4+ and CD8+ T cells in the lungs” value is “few infiltrated CD4^+ and CD8^+ T cells”.

In the next series the test system is eosinophile count in peripheral blood or lung.
Assay: not given
Particulars: peptide-immunized mice challenged with RSV; data not shown. It counts as in vivo, mouse.
With VILLSLIAV [compound 23], the “eosinophilia (eosinophile count in peripheral blood or lung)” value is reported as “not eosinophilia”.

Regarding YMLTNSELL [compound 14], the “eosinophilia (eosinophile count in peripheral blood or lung)” value is reported as “absence of pulmonary eosinophilia”.

Values taken from patent US20100172925A1, “HLA-A2-RESTRICTED T-CELL EPITOPES OF THE RESPIRATORY SYNCYTIAL VIRUS FUSION PROTEIN AS PEPTIDE-BASED VACCINES” (priority 2009, published 2010).
